This is an account of results in publication PMC10590398, “Hfq C-terminal region forms a β-rich amyloid-like motif without perturbing the N-terminal Sm-like structure” (Communications Biology, 2023).

Data set [1] concerns the molecule itself. The data set can be described thus: X-ray fibre diffraction; Hfq11 filaments assembled in water, seen as bundles of approx. 20 nm fibers by TEM; powder diffraction at 270 K, Cu Kα, washed by centrifugation; reflections at 4.6 Å and 7.8–8 Å (cross-β).
Data set [2] deals with the molecule itself. Briefly: ATR-FTIR; assembled Hfq CTR at 20 mg/mL in D2O, the amyloid state at the start of the lipid experiment.

B1: Hfq11, minimal 11-residue C-terminal assembling motif of E. coli Hfq (Hfq_(87-97)) (peptide)
peptide: SAQNTSAQQDS
notes: Hfq (host factor 1), E. coli, C-terminal region; Unlabelled synthetic peptide, studied as assembled filaments; also called Hfq 11-residues; 11-residue C-terminal Hfq peptide; source: synthetic peptide (Proteogenix), assembled in water at 4 °C at 20 mg/mL for >1 month
For the protein B1, the binding result in data set [1] is “binds”.

B2: Hfq 38-residue C-terminal region peptide (peptide)
peptide: SRPVSHHSNNAGGGTSSNYHHGSSAQNTSAQQDSEETE
notes: Hfq (host factor 1), E. coli, C-terminal region; The lipid experiment names its sample only 'assembled Hfq CTR'; also called Hfq 38-residues; Hfq CTR; source: synthetic peptide (Proteogenix), assembled at 4 °C at 20 mg/mL for >1 month (D2O for FTIR)
In the case of B2, in data set [2], the binding result is recorded as “binds”.
